From publication PMC12441119 (2025) come the findings set out here.

Sequences and labels used below:
B1: STK4 (residues 1–326) K59R [human] / HOIP (residues 854–1072) [not stated] (parent complex)
chain 1: METVQLRNPPRRQLKKLDEDSLTKQPEEVFDVLEKLGEGSYGSVYKAIHKETGQIVAIRQVPVESDLQEIIKEISIMQQCDSPHVVKYYGSYFKNTDLWIVMEYCGAGSVSDIIRLRNKTLTEDEIATILQSTLKGLEYLHFMRKIHRDIKAGNILLNTEGHAKLADFGVAGQLTDTMAKRNTVIGTPFWMAPEVIQEIGYNCVADIWSLGITAIEMAEGKPPYADIHPMRAIFMIPTNPPPTFRKPELWSDNFTDFVKQCLVKSPEQRATATQLLQHPFVRSAKGVSILRDLINEAMDVKLKRQESQQREVDQDDEENSEEDEMD
chain 2: EYQAQGLAMYLQENGIDCPKCKFSYALARGGCMHFHCTQCRHQFCSGCYNAFYAKNKCPEPNCRVKKSLHGHHPRDCLFYLRDWTALRLQKLLQDNNVMFNTEPPAGARAVPGGGCRVIEQKEVPNGLRDEACGKETPAGYAGLCQAHYKEYLVSLINAHSLDPATLYEVEELETATERYLHVRPQPLAGEDPPAYQARLLQKLTEEVPLGQSIPRRRK

Variants of B1 are the subject of this assay. Kind of assay: ITC. (In general: ITC needs no label: the signal is the heat of the interaction.)
The term Kd denotes the constant that tells how readily two partners part at equilibrium. With chain 1 R231E, the Kd was found to be 97.9 µM.
